Data taken from article doi:10.1101/2023.07.16.549178.

Biological target: F-actin (UniProt P68135)
Experiment: cryoEM (raw images and 2D image averages); full-length myosin-5a with F-actin free in solution, flash frozen in the presence of ATP, low calcium concentration, no cargo adaptor molecules; 1 myosin molecule per 2.5 actin subunits

percent of myosin molecules attached (from counts per um actin): < 10%
percent of observed myosin molecules attached by both heads to one actin filament: 55%
Substance: full-length myosin-5a (from UniProt Q99104 1-1853; P0DP26 1-149) (complex)
